Experimental data taken from patent US6368811 (VLAAMS INTERUNIVERSITAIR INSTITUUT VOOR BIOTECHNOLOGIE, dated 2002).

Tests used:
[1] = target: T1, GST (glutathione S-transferase) itself (UniProt P08515 1-218 = GST); experiment: ligand blot
T1 construct: Control; also called isolated GST-moiety

ligand blot = target: the molecule itself; experiment: ligand blot
[2] = target: T2, syndecan-2 full length cytoplasmic domain fused to the Gal4 DNA-binding domain (UniProt P04386 1-147; P34741 170-201); experiment: yeast two-hybrid
T2 construct: also called Gal4-syndecan bait
From the text: (§1) The yeast two-hybrid system (Chien et al, 1991; P.N.A.S., 88, 9578–9582) was used to identify the domains of sycl and the residues in the syndecan cytoplasmic domains that are responsible for the syndecan-sycl interaction. Different parts of the original clone (3p11) and of the sycl cDNA were subcloned in the pGAD10 vector (Clontech Laboratories), to code for fusions between the activating domain of Gal4 (Gal4 AD) and various full length, truncated, deleted, point-mutated, or epitope-tagged versions of sycl. […] But a requirement for paired PDZ domains (for instance two PDZ1 or two PDZ2 domains) has also been observed for the interactions of the GRIP adaptor protein with AMPA receptors 12 and the interaction of hDlg with the cytoplasmic domain of the Shaker-type K+channel.
(§2) Baits, comprising at least a cytoplasmic domain FYA (corresponds to Phe-Tyr-Ala) as C-terminal sequence of syndecans fused in frame to the DNA-binding domain of Gal4, were constructed by PCR, using the BamHI/SalI restriction sites of the pAS2 vector (Clontech Laboratories), and used to screen a human liver cDNA library (Clontech Laboratories) cloned in pGAD10. The pAS2 plasmids and library were cotransfected in CG1945 yeast cells, and positive clones were selected on triple minus plates (Leu-, Trp-, His-) and assayed for b-galactosidase activity. Positive cDNA clones were cotransfected with all four bait vectors and with the original pAS2 vector cells to confirm the interaction.

[3] = target: T3, syndecan-3 full length cytoplasmic domain fused to the Gal4 DNA-binding domain (UniProt P04386 1-147; O75056 410-442); experiment: yeast two-hybrid
T3 construct: also called Gal4-syndecan bait
From the text: as §1, §2

T1 sequence (P08515 whole entry): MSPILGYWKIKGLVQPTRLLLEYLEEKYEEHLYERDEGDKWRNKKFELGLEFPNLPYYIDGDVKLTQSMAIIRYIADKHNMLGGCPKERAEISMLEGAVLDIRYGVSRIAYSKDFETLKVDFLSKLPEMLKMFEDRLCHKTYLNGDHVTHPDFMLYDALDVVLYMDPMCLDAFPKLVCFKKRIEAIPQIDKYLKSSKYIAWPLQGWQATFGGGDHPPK

B1: GST-sycl M92 (sycl sequence starting at M92) fusion protein (other)
chain: MVAPVTGNDVGIRRAEIKQGIREVILCKDQDGKIGLRLKSIDNGIFVQLVQANSPASLVGLRFGDQVLQINGENCAGWSSDKAHKVLKQAFGEKITMTIRDRPFERTITMHKDSTGHVGFIFKNGKITSIVKDSSAARNGLLTEHNICEINGQNVIGLKDSQIADILSTSGTVVTITIMPAFIFEHIIKRMAPSIMKSLMDHTIPEV
notes: Expressed in E. coli BL21; not shown: glutathione S-transferase (GST) as encoded by vector pGEX-5X-2
Does B1 bind [1]?
Result: no binding

Does B1 bind (ligand blot)?
Result: no binding

B2: N-terminal domain of sycl alone fused to Gal4 activating domain (other, not shown: large carriers)
chain: MSLYPSLEDLKVDKVIQAQTAFSANPANPAILSEASAPIPHDGNLYPRLYPELSQYMGLSLNEEEIRASVAVVSGAPLQGQLVARPSSINYMVAPVTGNDVGIRRAEIKQGIR
notes: also called The N-terminal domain alone
Does B2 bind [2]?
Result: no binding

Does B2 bind [3]?
Result: no binding

B3: first PDZ domain of sycl alone fused to Gal4 activating domain (other, not shown: large carriers)
chain: VGIRRAEIKQGIREVILCKDQDGKIGLRLKSIDNGIFVQLVQANSPASLVGLRFGDQVLQINGENCAGWSSDKAHKVLKQAFGEKITMTIRDR
notes: also called PDZ-1 alone; either of the two PDZ domains alone
Does B3 bind [2]?
Result: no binding

Does B3 bind [3]?
Result: no binding

B4: second PDZ domain of sycl alone fused to Gal4 activating domain (other, not shown: large carriers)
chain: PFERTITMHKDSTGHVGFIFKNGKITSIVKDSSAARNGLLTEHNICEINGQNVIGLKDSQIADILSTSGTVVTITIMPAFI
notes: also called PDZ-2 alone; either of the two PDZ domains alone
Does B4 bind [2]?
Result: no binding

Does B4 bind [3]?
Result: no binding
